The results in this text go back to patent US4016042A, “Substrate for the quantitative determination of enzymes” (Pentapharm A.G., priority 1974, dated 1977).

Substrate in this data set: N=C(N)NCCC[C@H](NC(=O)[C@H](Cc1ccccc1)NC(=O)[C@@H]1CCCN1C(=O)c1ccccc1)C(=O)Nc1ccc([N+](=O)[O-])cc1
The data set can be described thus: Km and vmax determination with substrate (Lineweaver-Burk), plasmin. It counts as biochemical. As to conditions: other: plasmin; substrate concentration varied, enzyme constant; measured at 405 nm. The method, then:
As is evident from equation (2) constants Km and k3 determine the activity of the enzyme substrate for a given enzyme. For determining these constants the following procedure is followed:
The enzyme and the substrate are mixed in a buffer solution, and the reaction is followed spectrophotometrically for 2 to 30 minutes. The concentration of substrate [S] is varied, whereas the enzyme concentration [E] is kept constant. If the extinction (OD) (= optical density) is plotted in a co-ordinate system as a function of time, a curve is obtained the tangent of which (difference in extinction per minute, Δ OD/minute, from which the quantity in μmoles of pNA/min (v) can be calculated) at time zero corresponds to the ideal course of the hydrolysis. By means of this tangent the initial rate of the hydrolysis can be determined.
If 1/v is plotted against 1/[S], a Lineweaver-Burk diagram (cf. "Kurzes Lehrbuch der Biochemie" by P. KARSON, Georg Thieme-Verlag, Stuttgart, 1967, p. 70) is obtained from which vmax and Km can be determined graphically.
Km and k3 = vmax /E were determined with N^α-Bz-Pro-Phe-Arg-pNA^. HCl (i.e. the substrate prepared according to Example 1) for plasma kallikrein, trypsin, plasmin and thrombin.

B1: plasmin (Homo sapiens) (protein)
chain: VVGGCVAHPHSWPWQVSLRTRFGMHFCGGTLISPEWVLTAAHCLEKSPRPSSYKVILGAHQEVNLEPHVQEIEVSRLFLEPTRKDIALLKLSSPAVITDKVIPACLPSPNYVVADRTECFITGWGETQGTFGAGLLKEAQLPVIENKVCNRYEFLNGRVQSTELCAGHLAGGTDSCQGDSGGPLVCFEKDKYILQGVTSWGLGCARPNKPGVYVRVSRFVTWIEGVMRNN
For B1, the Km (commonly the substrate concentration at which the rate is half of its maximum) came out at 140 µM.
